Experimental data: the supplement of paper PMC10126150
± gives the standard deviation of the averaged measurements.

tested on: ATP; assay: switch fluorescence ratio, 500 uM ATP over buffer (Cy3 cluster intensity, sum of 5 cycles each) (fold (ratio)); higher = stronger signal-on switching upon ATP binding; sequences stand for … in TCGTCGGCAGCGTCAGATGTGTATAAGAGACAGTTTTTTTTTTTTTTTTTTTTTTTTT…TC; conditions: aptamer strand: ATP DNA aptamer (quencher-CACCTGGGGGAGTATTGCGGAGGAAGG + anchor), 100 nM annealed; ATP concentration: 500 uM
Method in brief: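 Between each of five buffer/ATP cycles, the flow-cell was stripped with NaOH and re-annealed. Each cycle imaged Cy3-labelled switching-strand clusters, annealed to 100 nM quencher-labelled ATP aptamer on a modified Illumina MiSeq flow-cell, first in selection buffer and then after 15 min with 500 uM ATP at 22 °C. The fluorescence ratio is summed target-cycle over summed buffer-cycle Cy3 intensity per cluster, averaged per switch-domain sequence, with clusters outside 100-1000 RFU excluded.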
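Also: ATP exposure 15 min at 22 °C before imaging.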

Sequence	switch fluorescence ratio
TATGTGGGAT	0.9734 ± 0.0016
TATGTGTGTG	0.9889 ± 0.0089
TATGTGTTGC	1.03 ± 0.023
TATGTTATAT	0.991 ± 0.029
TATGTTGTGT	0.96 ± 0.037
TATGTTTAAT	0.994 ± 0.041
TATGTTTGCC	1.02 ± 0.047
TATGTTTT	1.02 ± 0.016
TATGTTTTCT	1.01 ± 0.039
TATTAACGTA	1.08 ± 0.022
TATTAAGGGA	0.995 ± 0.012
TATTAATTGG	0.9932 ± 0.0037
TATTACTGAG	1.07 ± 0.036
TATTACTTTG	1.01 ± 0.024
TATTAGAATA	0.9814 ± 0.006
TATTAGACTA	1.02 ± 0.022
TATTAGGGGC	1.04 ± 0.036
TATTAGTAAT	1.002 ± 0.0032
TATTAGTAGC	0.9995 ± 0.0013
TATTAGTTAA	0.992 ± 0.019
TATTATGCGA	1.04 ± 0.022
TATTATGTCA	1.01 ± 0.043
TATTATTTTC	1.03 ± 0.046
TATTCAGGGA	1.02 ± 0.02
TATTCAGTCG	0.9927 ± 0.0051

Sequence	switch fluorescence ratio
TATTCATCGT	0.9932 ± 0.0075
TATTCTAATT	1.004 ± 0.006
TATTCTCGAC	1.01 ± 0.013
TATTCTGCTA	1.02 ± 0.024
TATTCTTTTT	0.968 ± 0.04
TATTGAAATT	1.05 ± 0.022
TATTGACAA	1.02 ± 0.019
TATTGAGAAG	0.987 ± 0.025
TATTGAGAGT	0.991 ± 0.032
TATTGAGATA	1.01 ± 0.04
TATTGAGGAG	1.01 ± 0.011
TATTGATATT	1.06 ± 0.14
TATTGATTTA	1.02 ± 0.042
TATTGCCGGG	0.985 ± 0.036
TATTGCGGGG	1.2 ± 0.42
TATTGGAGAT	1 ± 0.021
TATTGGCTAA	0.987 ± 0.034
TATTGGGGAG	1.13 ± 0.29
TATTGGGGAT	1.06 ± 0.043
TATTGGGGGT	1.01 ± 0.044
TATTGGGTCA	0.996 ± 0.03
TATTGGTTAA	0.974 ± 0.021
TATTGGTTCG	1.03 ± 0.027
TATTGTAACC	1.03 ± 0.016
TATTGTAATG	1.04 ± 0.0081

Sequence	switch fluorescence ratio
TATTGTGTGT	0.987 ± 0.022
TATTGTTGAC	1.037 ± 0.01
TATTTAACTT	1.014 ± 0.005
TATTTAAGTT	1.03 ± 0.013
TATTTACGGG	0.9931 ± 0.0065
TATTTAGTAT	0.99 ± 0.045
TATTTAGTCT	1 ± 0.026
TATTTATGTT	0.995 ± 0.031
TATTTCATAT	1 ± 0.013
TATTTCGGGA	0.994 ± 0.026
TATTTCGGTT	1.002 ± 0.0096
TATTTCTGTG	1.02 ± 0.034
TATTTGAGA	1.01 ± 0.019
TATTTGATGG	0.992 ± 0.021
TATTTGGGGG	1.01 ± 0.029
TATTTGGGTA	0.987 ± 0.026
TATTTTAGAA	0.996 ± 0.016
TATTTTAGGG	0.985 ± 0.029
TATTTTCATT	0.999 ± 0.015
TATTTTCGGA	0.97 ± 0.039
TATTTTGAGT	0.989 ± 0.012
TATTTTGGAG	0.985 ± 0.035
TATTTTGGCC	1.02 ± 0.04
TATTTTGTCT	1.1 ± 0.13
TATTTTGTGT	0.998 ± 0.036

Sequence	switch fluorescence ratio
TATTTTTCCG	1.03 ± 0.012
TATTTTTGTG	0.985 ± 0.011
TATTTTTTAT	1.022 ± 0.0017
TATTTTTTTA	0.997 ± 0.039
TCAAAACGGC	1.07 ± 0.15
TCAAAAGGGG	1.06 ± 0.092
TCAAACAGTG	1.02 ± 0.039
TCAAAGATAA	0.98902 ± 2.8e-05
TCAAAGCCCT	1.03 ± 0.03
TCAAATCGTT	0.992 ± 0.0074
TCAAATGGCG	0.923 ± 0.023
TCAAATTAGA	0.966 ± 0.026
TCAACAGGA	1.01 ± 0.033
TCAACCTACG	1.36 ± 0.17
TCAACGGGTA	1.01 ± 0.021
TCAACGTCAG	0.9872 ± 0.0048
TCAAGAGATG	1 ± 0.015
TCAAGATTAT	0.994 ± 0.027
TCAAGCCGAG	1.08 ± 0.062
TCAAGGAGGT	1.01 ± 0.13
TCAAGGCCTG	1.01 ± 0.042
TCAAGGGTCC	0.996 ± 0.07
TCAAGTAAAG	1.14 ± 0.23
TCAAGTGTTT	0.993 ± 0.015
TCAAGTTTTC	0.987 ± 0.034
